Reference: patent US20230183352A1 (published 2023)

The binders below were run against T1, Claudin 18.2 (CLDN18.2), expressed on CHOS-CLDN 18.2 / HEK293-CLDN 18.2 / HCC827-CLDN 18.2 cells (human, UniProt P56856 1-261) (assay: cell ELISA).

Row | Binder | EC50 [µg/mL]
1 | QP207208 (antibody, V domains shown) VH: EVQLQQSGPELVKPGASVKMSCKASGYTFTSYIMHWVKQKPGQGLEWIGYINPYNDGTKYNEKFKGKATLTSDKSSSTVYMELSSLTSEDSAVYCCARLGFTTRNAMDYWGQGTSVTVSS VL: DIVMTQSPSSLSVSAGEKVTMNCKSSQSLLNSGNQKNYLAWYQQKPGQPPKLLIYGASTRESGVPDRFTGSGSGTDFTLTISSVQAEDLAVYYCQNDHSYPFTFGSGTKLEIK | 0.119
2 | QP190191 (antibody, V domains shown) VH: EVKLVESGGGLVKPGGSLKLSCAASGFTFSNYAMSWVRQTPEKRLEWVASIISGGRTYYLDSEKGRFTISRDNARNNLYLQMSSLRSEDTAMYYCTRIYYGNSFDYWGQGTTLTVSS VL: DIVMTQSPSSQTVTAGEKVTMSCKSSQSLLNSGNQKNYLTWYQQKPGQPPKLLIYWASTRESGVPDRFTGSGSGTDFTLTISNMQAEDLAVYYCQNDYSYPFTFGSGTKLEIK | 0.178
3 | QP14371435 (antibody, V domains shown) VH: EVQLVESGGGLVKPGGSLRLSCAASGFTFSNYAMSWVRQAPGKGLEWVASIISGGRTYYLDSEKGRFTISRDNAKNSLYLQMNSLRAEDTAVYYCTRIYYGNSFDYWGQGTLVTVSS VL: DIVMTQSPDSLAVSLGERATISCKSSQSLLNSGNQKNYLTWYQQKPGQPPKLLIYWASTRESGVPDRFTGSGSGTDFTLTISSLQAEDVAVYYCQNDYSYPFTFGQGTKLEIKR | 0.134
4 | QP14361435 (antibody, V domains shown) VH: EVQLVESGGGLVKPGGSLRLSCAASGFTFSNYAMSWVRQAPGKGLEWVSSIISGGRTYYLDSEKGRFTISRDNAKNSLYLQMNSLRAEDTAVYYCTRIYYGNSFDYWGQGTLVTVSS VL: DIVMTQSPDSLAVSLGERATISCKSSQSLLNSGNQKNYLTWYQQKPGQPPKLLIYWASTRESGVPDRFTGSGSGTDFTLTISSLQAEDVAVYYCQNDYSYPFTFGQGTKLEIKR | 0.109
5 | QP14371433 (antibody, V domains shown) VH: EVQLVESGGGLVKPGGSLRLSCAASGFTFSNYAMSWVRQAPGKGLEWVASIISGGRTYYLDSEKGRFTISRDNAKNSLYLQMNSLRAEDTAVYYCTRIYYGNSFDYWGQGTLVTVSS VL: DIVMTQSPDSLAVSLGERATINCKSSQSLLNSGNQKNYLTWYQQKPGQPPKLLIYWASTRESGVPDRFSGSGSGTDFTLTISSLQAEDVAVYYCQNDYSYPFTFGQGTKLEIKR | 0.108
6 | QP14361434 (antibody, V domains shown) VH: EVQLVESGGGLVKPGGSLRLSCAASGFTFSNYAMSWVRQAPGKGLEWVSSIISGGRTYYLDSEKGRFTISRDNAKNSLYLQMNSLRAEDTAVYYCTRIYYGNSFDYWGQGTLVTVSS VL: DIVMTQSPDSLAVSLGERATISCKSSQSLLNSGNQKNYLTWYQQKPGQPPKLLIYWASTRESGVPDRFSGSGSGTDFTLTISSLQAEDVAVYYCQNDYSYPFTFGQGTKLEIK | 0.17
7 | QP14361433 (antibody, V domains shown) VH: EVQLVESGGGLVKPGGSLRLSCAASGFTFSNYAMSWVRQAPGKGLEWVSSIISGGRTYYLDSEKGRFTISRDNAKNSLYLQMNSLRAEDTAVYYCTRIYYGNSFDYWGQGTLVTVSS VL: DIVMTQSPDSLAVSLGERATINCKSSQSLLNSGNQKNYLTWYQQKPGQPPKLLIYWASTRESGVPDRFSGSGSGTDFTLTISSLQAEDVAVYYCQNDYSYPFTFGQGTKLEIK | 0.112
8 | QP14371434 (antibody, V domains shown) VH: EVQLVESGGGLVKPGGSLRLSCAASGFTFSNYAMSWVRQAPGKGLEWVASIISGGRTYYLDSEKGRFTISRDNAKNSLYLQMNSLRAEDTAVYYCTRIYYGNSFDYWGQGTLVTVSS VL: DIVMTQSPDSLAVSLGERATISCKSSQSLLNSGNQKNYLTWYQQKPGQPPKLLIYWASTRESGVPDRFSGSGSGTDFTLTISSLQAEDVAVYYCQNDYSYPFTFGQGTKLEIK | 0.284

Second part, the binder after the results:

Row | EC50 [µg/mL] | Binder
9 | 0.125 | QP14381433 (antibody, V domains shown) VH: EVQLVESGGGLVKPGGSLRLSCAASGFTFSNYAMSWVRQAPGKRLEWVASIISGGRTYYLDSEKGRFTISRDNAKNSLYLQMNSLRAEDTAVYYCTRIYYGNSFDYWGQGTLVTVSS VL: DIVMTQSPDSLAVSLGERATINCKSSQSLLNSGNQKNYLTWYQQKPGQPPKLLIYWASTRESGVPDRFSGSGSGTDFTLTISSLQAEDVAVYYCQNDYSYPFTFGQGTKLEIK
10 | 0.135 | QP14631460 (antibody, V domains shown) VH: QVQLVQSGAEVKKPGASVKVSCKASGYTFTSYIMHWVRQAPGQGLEWMGYINPYNDGTKYNEKFKGRVTMTRDTSTSTVYMELSSLRSEDTAVYYCARLGFTTRNAMDYWGQGTLVTVSS VL: DIVMTQSPDSLAVSLGERATINCKSSQSLLNSGNQKNYLAWYQQKPGQPPKLLIYGASTRESGVPDRFSGSGSGTDFTLTISSLQAEDVAVYYCQNDHSYPFTFGQGTKLEIK
11 | 0.145 | QP14381434 (antibody, V domains shown) VH: EVQLVESGGGLVKPGGSLRLSCAASGFTFSNYAMSWVRQAPGKRLEWVASIISGGRTYYLDSEKGRFTISRDNAKNSLYLQMNSLRAEDTAVYYCTRIYYGNSFDYWGQGTLVTVSS VL: DIVMTQSPDSLAVSLGERATISCKSSQSLLNSGNQKNYLTWYQQKPGQPPKLLIYWASTRESGVPDRFSGSGSGTDFTLTISSLQAEDVAVYYCQNDYSYPFTFGQGTKLEIK
12 | 0.196 | QP14381435 (antibody, V domains shown) VH: EVQLVESGGGLVKPGGSLRLSCAASGFTFSNYAMSWVRQAPGKRLEWVASIISGGRTYYLDSEKGRFTISRDNAKNSLYLQMNSLRAEDTAVYYCTRIYYGNSFDYWGQGTLVTVSS VL: DIVMTQSPDSLAVSLGERATISCKSSQSLLNSGNQKNYLTWYQQKPGQPPKLLIYWASTRESGVPDRFTGSGSGTDFTLTISSLQAEDVAVYYCQNDYSYPFTFGQGTKLEIK

Molecular target: T1, Claudin 18.2 (CLDN18.2), expressed on …
Experiment: cell ELISA
Remark: another data set of the same source

Row | EC50 [µg/mL] | Binder
13 | 0.155 | QP192193 (antibody, V domains shown) VH: QVQLQQSGAELVRPGSSVKISCKASGYAFSSYWMNWVKQRPGQGLEWIGQIYPGNGDTTYNGKFKGQATLTADKSSSTVYMQLSSLTSEDSAVYFCARFVKGNAMDYWGQGTSVTVSS VL: DIVMTQSPSSLTVTAGEKVTMSCKSSQSLLNSGNQKNYLTWYQQNPGQPPKMLIYWASTRESGVPDRFTGSGSGIDFSLTISSVQAEDLALYYCQNAYSYPFTFGSGTKLEIK

Each binder was assayed against T1, Claudin 18.2 (CLDN18.2), expressed on … (assay: ELISA).

Row | EC50 [µg/mL] | Binder
14 | 0.106 | QP14441441 (antibody, V domains shown) VH: QVQLVQSGAEVKKPGASVKVSCKASGYAFSSYWMNWVRQAPGQGLEWIGQIYPGNGDTTYNGKFKGRVTMTADKSTSTVYMELSSLRSEDTAVYYCARFVKGNAMDYWGQGTLVTVSS VL: DIVMTQSPDSLAVSLGERATISCKSSQSLLNSGNQKNYLTWYQQKPGQPPKLLIYWASTRESGVPDRFSGSGSGIDFTLTISSVQAEDVAVYYCQNAYSYPFTFGQGTKLEIKR

Molecular target: T1, Claudin 18.2 (CLDN18.2), expressed on …
Experiment: cell ELISA
Remark: another data set of the same source

Row | Binder | EC50 [µg/mL]
15 | QP207208 (antibody, V domains shown) VH: EVQLQQSGPELVKPGASVKMSCKASGYTFTSYIMHWVKQKPGQGLEWIGYINPYNDGTKYNEKFKGKATLTSDKSSSTVYMELSSLTSEDSAVYCCARLGFTTRNAMDYWGQGTSVTVSS VL: DIVMTQSPSSLSVSAGEKVTMNCKSSQSLLNSGNQKNYLAWYQQKPGQPPKLLIYGASTRESGVPDRFTGSGSGTDFTLTISSVQAEDLAVYYCQNDHSYPFTFGSGTKLEIK | 0.179
16 | QP192193 (antibody, V domains shown) VH: QVQLQQSGAELVRPGSSVKISCKASGYAFSSYWMNWVKQRPGQGLEWIGQIYPGNGDTTYNGKFKGQATLTADKSSSTVYMQLSSLTSEDSAVYFCARFVKGNAMDYWGQGTSVTVSS VL: DIVMTQSPSSLTVTAGEKVTMSCKSSQSLLNSGNQKNYLTWYQQNPGQPPKMLIYWASTRESGVPDRFTGSGSGIDFSLTISSVQAEDLALYYCQNAYSYPFTFGSGTKLEIK | 0.101

The remaining lines, values ahead:

Row | EC50 [µg/mL] | Binder
17 | 0.124 | QP14431440 (antibody, V domains shown) VH: QVQLVQSGAEVKKPGASVKVSCKASGYAFSSYWMNWVRQAPGQGLEWMGQIYPGNGDTTYNGKFKGRVTMTRDTSTSTVYMELSSLRSEDTAVYYCARFVKGNAMDYWGQGTLVTVSS VL: DIVMTQSPDSLAVSLGERATISCKSSQSLLNSGNQKNYLTWYQQKPGQPPKLLIYWASTRESGVPDRFSGSGSGTDFTLTISSLQAEDVAVYYCQNAYSYPFTFGQGTKLEIK
18 | 0.111 | QP14431439 (antibody, V domains shown) VH: QVQLVQSGAEVKKPGASVKVSCKASGYAFSSYWMNWVRQAPGQGLEWMGQIYPGNGDTTYNGKFKGRVTMTRDTSTSTVYMELSSLRSEDTAVYYCARFVKGNAMDYWGQGTLVTVSS VL: DIVMTQSPDSLAVSLGERATINCKSSQSLLNSGNQKNYLTWYQQKPGQPPKLLIYWASTRESGVPDRFSGSGSGTDFTLTISSLQAEDVAVYYCQNAYSYPFTFGQGTKLEIK
19 | 0.105 | QP14631462 (antibody, V domains shown) VH: QVQLVQSGAEVKKPGASVKVSCKASGYTFTSYIMHWVRQAPGQGLEWMGYINPYNDGTKYNEKFKGRVTMTRDTSTSTVYMELSSLRSEDTAVYYCARLGFTTRNAMDYWGQGTLVTVSS VL: DIVMTQSPDSLAVSLGERATINCKSSQSLLNSGNQKNYLAWYQQKPGQPPKLLIYGASTRESGVPDRFTGSGSGTDFTLTISSVQAEDVAVYYCQNDHSYPFTFGQGTKLEIK
20 | 0.202 | QP14511447 (antibody, V domains shown) VH: EVQLVESGGGLVQPGGSLRLSCAASGFTFSSFGMHWVRQAPGKGLEWVAYISSGSNSIYYVDTVKGRFTISRDNAKNSLYLQMNSLRSEDTAVYYCARNAYYGNSFDYWGQGTLVTVSS VL: DIVMTQSPDSLAVSLGERATISCKSSQSLLNSGNQKNYLTWYQQKPGQPPKLLIYWASTRESGVPDRFSGSGSGTDFTLTISSLQAEDVAVYFCQNNYYYPLTFGGGTKVEIK
21 | 0.148 | QP14491447 (antibody, V domains shown) VH: EVQLVESGGGLVQPGGSLRLSCAASGFTFSSFGMHWVRQAPGKGLEWVSYISSGSNSIYYVDTVKGRFTISRDNAKNSLYLQMNSLRDEDTAVYYCARNAYYGNSFDYWGQGTLVTVSS VL: DIVMTQSPDSLAVSLGERATISCKSSQSLLNSGNQKNYLTWYQQKPGQPPKLLIYWASTRESGVPDRFSGSGSGTDFTLTISSLQAEDVAVYFCQNNYYYPLTFGGGTKVEIK
22 | 0.538 | QP14661462 (antibody, V domains shown) VH: EVQLVQSGAEVKKPGASVKVSCKASGYTFTSYIMHWVKQAPGQGLEWIGYINPYNDGTKYNEKFKGKATLTSDKSTSTVYMELSSLRSEDTAVYCCARLGFTTRNAMDYWGQGTLVTVSS VL: DIVMTQSPDSLAVSLGERATINCKSSQSLLNSGNQKNYLAWYQQKPGQPPKLLIYGASTRESGVPDRFTGSGSGTDFTLTISSVQAEDVAVYYCQNDHSYPFTFGQGTKLEIK
